Laboratory results from paper doi:10.1101/2022.11.08.515567.

Experiments:
Experiment in all cases: SEC
[1] = molecular target: S2P-1208.H8 (ancestral Hu-1) (SARS CoV-2 (ancestral Hu-1 isolate)) (UniProt P0DTC2)
[2] = molecular target: S2P.OmiBA1-1208.H8 (SARS CoV-2 (Omicron BA.1))
[3] = molecular target: S2P.OmiBA1-FHA (SARS CoV-2 (Omicron BA.1) | bacteriophage T4)
[4] = molecular target: S2P.OmiBA.4/5-1208.H8 (SARS CoV-2 (Omicron BA.4/5))

“S2P-1208.H8 (ancestral Hu-1) (from UniProt P0DTC2 16-1208) (domain or fragment)” gave a stoichiometry N [1] of 2.
With S2P.OmiBA1-1208.H8 (domain or fragment) the percent dissociated to dimer after a freeze-thaw cycle [2] was 15% and the stoichiometry N [2] was 3.
S2P.OmiBA1-FHA (domain or fragment) showed a stoichiometry N [3] of 3.
“S2P.OmiBA.4/5-1208.H8 (domain or fragment)” was tested, and the stoichiometry N [4] was 3.
